Assay results published in doi:10.1101/2021.06.14.448436.

Target: human angiotensin-converting enzyme 2 (human) (UniProt Q9BYF1)
Experiment: SPR

Sequence of UniProt Q9BYF1 (Q9BYF1 18-805): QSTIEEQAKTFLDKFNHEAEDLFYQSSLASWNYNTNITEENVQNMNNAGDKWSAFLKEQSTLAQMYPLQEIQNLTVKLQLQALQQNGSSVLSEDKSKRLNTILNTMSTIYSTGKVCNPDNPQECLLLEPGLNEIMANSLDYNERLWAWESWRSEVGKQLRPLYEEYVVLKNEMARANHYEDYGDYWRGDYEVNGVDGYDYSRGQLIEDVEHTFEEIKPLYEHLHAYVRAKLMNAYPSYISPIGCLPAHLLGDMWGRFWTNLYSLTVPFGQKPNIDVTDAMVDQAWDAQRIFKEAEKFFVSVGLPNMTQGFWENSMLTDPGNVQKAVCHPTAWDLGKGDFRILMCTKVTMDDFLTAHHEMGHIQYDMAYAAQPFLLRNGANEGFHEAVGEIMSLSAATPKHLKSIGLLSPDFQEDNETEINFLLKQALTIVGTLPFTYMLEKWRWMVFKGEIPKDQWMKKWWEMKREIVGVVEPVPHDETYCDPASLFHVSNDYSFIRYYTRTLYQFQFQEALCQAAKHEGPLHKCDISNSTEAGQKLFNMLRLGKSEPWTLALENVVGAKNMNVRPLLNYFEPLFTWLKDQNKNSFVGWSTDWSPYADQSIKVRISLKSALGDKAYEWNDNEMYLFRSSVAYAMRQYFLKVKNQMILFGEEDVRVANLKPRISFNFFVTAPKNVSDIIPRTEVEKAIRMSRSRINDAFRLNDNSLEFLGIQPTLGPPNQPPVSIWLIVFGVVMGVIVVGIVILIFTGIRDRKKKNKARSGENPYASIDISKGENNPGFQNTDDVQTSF

Question: How did the Kd turn out when “SARS-CoV-2 trimeric Spike protein, wild-type, prefusion-stabilised” was run?
Answer: 6.4 nM
